From paper PMC8683085, “Serine ADP-ribosylation marks nucleosomes for ALC1-dependent chromatin remodeling” (eLife, 2021)
Substitutions are numbered along the chain they refer to. Names may count otherwise. Values belong to the molecule of their own block, whether it stands above or below them.

Molecular target: PARP1 (Homo sapiens, UniProt P09874)
Test: PARP1 ADP-ribose chain elongation on mono-ADP-ribosylated peptide (RP-HPLC), with and without HPF1 titration
Type: biochemical
Conditions: 1 μM PARP1, 180 μM H3S10ADPr1 peptide, 2 mM NAD+, 30 °C 25 min, RP-HPLC A280, n = 3
Method: To analyze PARP1 and PARP2 ADPr activity on peptide substrates, 2 mM NAD^+ and 1 μM stimulating DNA were combined into the ADPr reaction buffer in the presence of 0.2, 1, or 5 μM PARP1 or PARP2, in a 25 μL reaction (2 μM PARP1/2, 2 μM DNA and 50 μL reaction volume for H2B peptides). All unmodified and mono-ADP-ribosylated substrate peptides were analyzed at a concentration of 180 μM (40 μM for H2B peptides). The reaction was incubated at 30 °C for 25 min, quenched via addition of 95 μL (70 μL in case of H2B peptide reactions) of Solvent A. It was then centrifuged at 20,000 RCF for 5 min and 100 μL of the supernatant was injected into an analytical C18 column for product analysis via RP-HPLC. An elution gradient of 0–35% Solvent B over 20 min was employed to optimize separation of the poly-ADP-ribosylated peptide products. Percent substrate turnover was calculated by integrating the peaks for the starting material and each product on the RP-HPLC A280 trace, normalizing them depending on their number of ADP-ribose moieties, and calculating ratio of total product to total peptide amounts for each reaction. All reactions were performed in triplicate and error bars represent standard deviations. Individual peaks corresponding to products with unique ADP-ribose chain lengths were collected and analyzed by ESI-MS. […]

PARP1, sequence (P09874 whole entry): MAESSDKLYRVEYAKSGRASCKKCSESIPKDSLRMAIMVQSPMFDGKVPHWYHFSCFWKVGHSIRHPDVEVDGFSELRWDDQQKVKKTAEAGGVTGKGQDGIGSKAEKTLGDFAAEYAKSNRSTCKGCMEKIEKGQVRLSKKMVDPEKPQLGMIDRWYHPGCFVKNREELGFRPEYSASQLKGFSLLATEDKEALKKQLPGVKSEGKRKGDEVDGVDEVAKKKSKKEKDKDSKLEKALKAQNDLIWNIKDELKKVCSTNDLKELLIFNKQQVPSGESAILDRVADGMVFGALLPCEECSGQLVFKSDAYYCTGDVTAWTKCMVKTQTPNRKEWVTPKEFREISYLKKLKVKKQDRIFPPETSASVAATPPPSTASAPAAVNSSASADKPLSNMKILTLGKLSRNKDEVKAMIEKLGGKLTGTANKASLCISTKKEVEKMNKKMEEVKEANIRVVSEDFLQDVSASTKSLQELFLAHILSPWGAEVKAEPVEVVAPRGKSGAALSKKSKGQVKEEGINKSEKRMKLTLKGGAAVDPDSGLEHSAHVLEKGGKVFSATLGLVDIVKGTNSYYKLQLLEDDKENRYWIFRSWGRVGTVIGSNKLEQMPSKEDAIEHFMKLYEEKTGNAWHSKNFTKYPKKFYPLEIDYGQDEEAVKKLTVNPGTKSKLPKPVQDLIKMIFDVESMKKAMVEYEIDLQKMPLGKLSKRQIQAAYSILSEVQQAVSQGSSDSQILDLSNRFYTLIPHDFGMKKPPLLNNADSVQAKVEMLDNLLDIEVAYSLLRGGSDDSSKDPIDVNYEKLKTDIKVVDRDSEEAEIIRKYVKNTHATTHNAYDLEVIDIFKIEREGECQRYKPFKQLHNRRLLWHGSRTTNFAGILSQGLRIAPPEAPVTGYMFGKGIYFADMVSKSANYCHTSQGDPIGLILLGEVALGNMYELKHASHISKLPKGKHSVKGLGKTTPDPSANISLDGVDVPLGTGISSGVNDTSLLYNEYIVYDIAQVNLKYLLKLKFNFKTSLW

- IC50 (read-out: HPF1 concentration giving 50% inhibition of PARP1-catalyzed ADP-ribose polymerization): ~14 µM
B1: HPF1: recombinant FLAG-HPF1, amino acids 27–346, PARP1/2-interacting protein (protein)
chain: KFCEADVSSDLRKEVENHYKLSLPEDFYHFWKFCEELDPEKPSDSLSASLGLQLVGPYDILAGKHKTKKKSTGLNFNLHWRFYYDPPEFQTIIIGDNKTQYHMGYFRDSPDEFPVYVGINEAKKNCIIVPNGDNVFAAVKLFLTKKLREITDKKKINLLKNIDEKLTEAARELGYSLEQRTVKMKQRDKKVVTKTFHGAGLVVPVDKNDVGYRELPETDADLKRICKTIVEAASDEERLKAFAPIQEMMTFVQFANDECDYGMGLELGMDLFCYGSHYFHKVAGQLLPLAYNLLKRNLFAEIIEEHLANRSQENIDQLAA
modifications: left off: 6xHis, N-terminal, cleaved | SUMO, N-terminal, cleaved | FLAG, N-terminal, kept

- HPF1 concentration giving 50% inhibition of PARP1-catalyzed ADP-ribose polymerization: unable to appreciably inhibit
B2: HPF1 mutant (D283A): binding-deficient HPF1 mutant (protein)
chain: B1 chain with D257A
modifications: left off: 6xHis, N-terminal, cleaved | SUMO, N-terminal, cleaved | FLAG, N-terminal, kept
